From US20070056058A1 (TARGETED GROWTH, published 2007) come the findings set out here.

Experiment [1] deals with AtcyclinD2;1/AtCDKA active kinase complex (Arabidopsis) (UniProt P42752). The experiment in a line: cell-based or functional assay.
Experiment [2] deals with T1, AtcyclinD2;1/AtCDKA active kinase complex (Arabidopsis, UniProt P42752 1-361; P24100 1-294). The experiment in a line: cell-based or functional assay.
Experiment [3] concerns the target T2, Arabidopsis cyclin D2;1 (AtcyclinD2;1), FLAG tagged (Arabidopsis, UniProt P42752 1-361).
T2 construct: Made in Sf9 insect cells from the pAcHLT transfer vector; used as insect cell protein extract
T2 sequence: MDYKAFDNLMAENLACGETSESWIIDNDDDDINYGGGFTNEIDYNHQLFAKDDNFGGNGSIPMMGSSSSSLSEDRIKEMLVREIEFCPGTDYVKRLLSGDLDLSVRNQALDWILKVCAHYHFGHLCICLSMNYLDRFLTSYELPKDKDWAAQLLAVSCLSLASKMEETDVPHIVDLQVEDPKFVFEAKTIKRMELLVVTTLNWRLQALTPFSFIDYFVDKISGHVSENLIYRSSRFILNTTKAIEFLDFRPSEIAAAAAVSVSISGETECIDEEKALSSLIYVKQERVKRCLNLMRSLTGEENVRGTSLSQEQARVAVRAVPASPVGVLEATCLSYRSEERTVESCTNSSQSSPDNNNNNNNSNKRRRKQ
The experiment in a line: in vitro binding, graded (column Cyclin binding).

Experiment [4] has as its target T1, AtcyclinD2;1/AtCDKA active kinase …. The experiment in a line: in vitro binding experiments.

Chain of AtcyclinD2;1/AtCDKA active kinase complex (Arabidopsis) (P24100 other isoform, or with tags, fused parts or gaps limits assumed): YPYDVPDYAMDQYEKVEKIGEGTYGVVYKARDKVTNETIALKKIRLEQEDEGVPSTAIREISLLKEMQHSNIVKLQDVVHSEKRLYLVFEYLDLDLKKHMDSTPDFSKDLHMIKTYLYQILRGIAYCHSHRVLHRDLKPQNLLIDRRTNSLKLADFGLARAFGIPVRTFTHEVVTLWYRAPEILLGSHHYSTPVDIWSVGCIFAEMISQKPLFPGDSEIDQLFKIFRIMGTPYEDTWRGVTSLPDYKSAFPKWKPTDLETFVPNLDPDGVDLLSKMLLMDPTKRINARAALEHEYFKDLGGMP
T1 sequence (P24100 other isoform, or with tags, fused parts or gaps limits assumed): as above

“BnKrp1 Y149A; F151A; F153A, construct #598”: in experiment [1], the kinase activity restored by 5 µg mutant in the presence of 0.6 µg wild-type KRP1 was below 55% and the kinase activity restored by 10 µg mutant in the presence of wild-type KRP1 is below 80%.
“BnKrp1 #462 (E129A, E130A, I131A, D132A), cyclin binding region mutant”: in experiment [1], the IC50 (inhibitory concentration that reduces the kinase activity by 50%) is 1.25 µg.
For the molecule “ZmKRP4 (maize KRP, Genbank accession # AY986792)”, in experiment [1], the IC50 of kinase inhibition was found to be 0.035 µg.
Take BnKrp1 E164A; W165A, construct #555: in experiment [1], the kinase activity restored by 5 µg mutant in the presence of wild-type KRP1 is 14% and the kinase activity restored by 10 µg mutant in the presence of wild-type KRP1 was 15%.

B1: BnKRP1 wild type (Brassica napus Krp1), construct BnKrp #461 (other, not shown: small tags and cut ends)
chain: MVRKCRKTKGTVGASSTYMQLRSRRIVYRSEKASSSSSSCCASNNNGVIDLEEERDGETETSSCRRSSKRKLFENLREKESMENSQQIVAGFDSAVKESSDCCCSRRTSLSTTEEKGKSATEQPPTAVEIEDFFVEAEKQLHDNFKKKYNFDFEKEKPLEGRYEWVKL
As to B1, in experiment [2], the “IC50 (inhibitory concentration that reduces the kinase activity by 50%)” value was 0.035 µg.

B2: BnKrp1 F151A, construct #572 (other)
chain: MVRKCRKTKGTVGASSTYMQLRSRRIVYRSEKASSSSSSCCASNNNGVIDLEEERDGETETSSCRRSSKRKLFENLREKESMENSQQIVAGFDSAVKESSDCCCSRRTSLSTTEEKGKSATEQPPTAVEIEDFFVEAEKQLHDNFKKKYNADFEKEKPLEGRYEWVKL
notes: also called BnKrp1 #572; not shown: N-terminal 6xHis and poly-Myc tags of pET16b-5MYC
For B2, the binding result in experiment [3] and in experiment [4] was “binds” each time.

B3: BnKrp1 Y149A, construct #587 (other)
chain: MVRKCRKTKGTVGASSTYMQLRSRRIVYRSEKASSSSSSCCASNNNGVIDLEEERDGETETSSCRRSSKRKLFENLREKESMENSQQIVAGFDSAVKESSDCCCSRRTSLSTTEEKGKSATEQPPTAVEIEDFFVEAEKQLHDNFKKKANFDFEKEKPLEGRYEWVKL
notes: also called BnKrp1 #587; not shown: N-terminal 6xHis and poly-Myc tags of pET16b-5MYC
B3: the binding result in experiment [4] is recorded as “binds”.
